According to IntAct's records for PubMed 35512704:

B1: Mothers against decapentaplegic homolog 4 (Homo sapiens), Q13485 (parent)
chain: MDNMSITNTPTSNDACLSIVHSLMCHRQGGESETFAKRAIESLVKKLKEKKDELDSLITAITTNGAHPSKCVTIQRTLDGRLQVAGRKGFPHVIYARLWRWPDLHKNELKHVKYCQYAFDLKCDSVCVNPYHYERVVSPGIDLSGLTLQSNAPSSMMVKDEYVHDFEGQPSLSTEGHSIQTIQHPPSNRASTETYSTPALLAPSESNATSTANFPNIPVASTSQPASILGGSHSEGLLQIASGPQPGQQQNGFTGQPATYHHNSTTTWTGSRTAPYTPNLPHHQNGHLQHHPPMPPHPGHYWPVHNELAFQPPISNHPAPEYWCSIAYFEMDVQVGETFKVPSSCPIVTVDGYVDPSGGDRFCLGQLSNVHRTEAIERARLHIGKGVQLECKGEGDVWVRCLSDHAVFVQSYYLDREAGRAPGDAVHKIYPSAYIKVFDLRQCHRQMQQQAATAQAAAAAQAAAVAGNIPGPGSVGGIAPAISLSAAAGIGVDDLRRLCILRMSFVKGWGPDYPRQSIKETPCWIEIHLHRALQLLDEVLHTMPIADPQPLD
partner: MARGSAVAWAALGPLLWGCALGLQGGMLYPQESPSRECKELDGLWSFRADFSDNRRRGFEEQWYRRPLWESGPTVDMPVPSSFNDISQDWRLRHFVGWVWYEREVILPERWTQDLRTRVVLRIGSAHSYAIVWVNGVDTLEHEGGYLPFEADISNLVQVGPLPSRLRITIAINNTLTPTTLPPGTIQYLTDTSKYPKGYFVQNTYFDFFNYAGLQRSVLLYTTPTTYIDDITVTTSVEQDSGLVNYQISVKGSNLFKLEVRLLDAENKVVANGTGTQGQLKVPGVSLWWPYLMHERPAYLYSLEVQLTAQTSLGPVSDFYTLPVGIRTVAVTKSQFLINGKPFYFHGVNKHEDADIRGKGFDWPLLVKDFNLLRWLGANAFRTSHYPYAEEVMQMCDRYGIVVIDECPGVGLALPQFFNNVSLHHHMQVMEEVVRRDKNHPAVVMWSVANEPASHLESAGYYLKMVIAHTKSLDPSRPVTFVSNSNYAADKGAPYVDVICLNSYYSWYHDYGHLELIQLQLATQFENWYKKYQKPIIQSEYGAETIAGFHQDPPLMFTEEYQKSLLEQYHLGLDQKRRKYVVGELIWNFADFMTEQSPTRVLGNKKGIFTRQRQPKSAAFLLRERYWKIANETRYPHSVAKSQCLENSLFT
B2: Mothers against decapentaplegic homolog 4 (Homo sapiens), Q13485 (parent)
chain: B1 chain
partner: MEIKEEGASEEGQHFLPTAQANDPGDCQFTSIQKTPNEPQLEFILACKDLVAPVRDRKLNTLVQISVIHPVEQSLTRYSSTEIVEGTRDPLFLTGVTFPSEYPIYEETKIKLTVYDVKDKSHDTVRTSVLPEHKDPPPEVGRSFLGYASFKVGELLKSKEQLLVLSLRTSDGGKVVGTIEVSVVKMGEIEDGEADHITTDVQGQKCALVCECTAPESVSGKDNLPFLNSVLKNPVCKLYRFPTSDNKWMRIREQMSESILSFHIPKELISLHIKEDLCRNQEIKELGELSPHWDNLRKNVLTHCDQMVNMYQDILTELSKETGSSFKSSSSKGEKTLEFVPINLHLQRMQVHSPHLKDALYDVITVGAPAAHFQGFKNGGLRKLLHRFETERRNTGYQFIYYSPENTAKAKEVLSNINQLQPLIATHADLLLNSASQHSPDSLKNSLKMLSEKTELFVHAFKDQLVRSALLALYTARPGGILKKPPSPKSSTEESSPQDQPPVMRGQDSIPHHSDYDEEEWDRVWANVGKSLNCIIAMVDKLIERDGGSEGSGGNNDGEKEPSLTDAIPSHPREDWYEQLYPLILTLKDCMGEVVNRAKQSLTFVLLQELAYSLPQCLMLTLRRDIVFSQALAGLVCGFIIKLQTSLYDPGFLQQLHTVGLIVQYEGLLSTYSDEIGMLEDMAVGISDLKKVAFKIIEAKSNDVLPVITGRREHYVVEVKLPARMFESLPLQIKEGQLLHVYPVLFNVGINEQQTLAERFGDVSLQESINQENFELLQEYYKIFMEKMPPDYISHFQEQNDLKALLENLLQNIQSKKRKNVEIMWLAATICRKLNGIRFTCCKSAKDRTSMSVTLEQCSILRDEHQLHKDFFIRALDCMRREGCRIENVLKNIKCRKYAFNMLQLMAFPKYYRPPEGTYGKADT
B3: Mothers against decapentaplegic homolog 4 (Homo sapiens), Q13485 (parent)
chain: B1 chain
partner: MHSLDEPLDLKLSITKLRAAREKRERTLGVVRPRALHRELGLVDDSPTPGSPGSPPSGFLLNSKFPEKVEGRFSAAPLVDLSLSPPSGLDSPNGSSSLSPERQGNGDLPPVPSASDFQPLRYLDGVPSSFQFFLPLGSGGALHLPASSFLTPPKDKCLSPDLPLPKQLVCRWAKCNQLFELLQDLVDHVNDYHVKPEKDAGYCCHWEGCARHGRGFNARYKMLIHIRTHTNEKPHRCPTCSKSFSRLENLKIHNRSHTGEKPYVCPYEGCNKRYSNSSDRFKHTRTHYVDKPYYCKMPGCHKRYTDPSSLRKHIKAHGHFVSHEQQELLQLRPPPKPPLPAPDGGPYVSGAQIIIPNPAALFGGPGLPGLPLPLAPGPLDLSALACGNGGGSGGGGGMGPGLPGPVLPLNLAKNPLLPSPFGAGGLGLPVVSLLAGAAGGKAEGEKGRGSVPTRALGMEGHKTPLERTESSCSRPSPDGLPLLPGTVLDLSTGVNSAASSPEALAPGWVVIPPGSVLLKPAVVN

Variants of: B1
Details: with bglr_human GUSB

Q: For D351H, which “effect of a mutation on the interaction” value is on record?
A: The value was “with no effect”.

Variants of: B1
Details: with bglr_human GUSB
Remark: another data set of the same source

Q: G386D was tested. Which “effect of a mutation on the interaction” value did it give?
A: Its value is “with no effect”.

Variants of: B1
Details: with bglr_human GUSB
Remark: another data set of the same source

Q: Which “effect of a mutation on the interaction” value does the source give for R361H here?
A: The value was “with no effect”.

Variants of: B1
Details: with bglr_human GUSB
Remark: another data set of the same source

Q: For R361C, which “effect of a mutation on the interaction” value is on record?
A: Its value is “with no effect”.

Variants of: B2
Details: with inp4b_human INPP4B

Q: Which “effect of a mutation on the interaction” value does the source give for R361C here?
A: Its value is “with no effect”.

Variants of: B2
Details: with inp4b_human INPP4B
Remark: another data set of the same source

Q: How did the “effect of a mutation on the interaction” value turn out when R361H was run?
A: Its value is “with no effect”.

Variants of: B2
Details: with inp4b_human INPP4B
Remark: another data set of the same source

Q: How did the “effect of a mutation on the interaction” value turn out when D351H was run?
A: Its value is “with no effect”.

Variants of: B2
Details: with inp4b_human INPP4B
Remark: another data set of the same source

Q: How did the “effect of a mutation on the interaction” value turn out when G386D was run?
A: Its value is “with no effect”.

Variants of: B3
Details: with glis2_human GLIS2, Q9BZE0

Q: With D351H as the variant, how does the “effect of a mutation on the interaction” value read?
A: Its value is “with no effect”.

Variants of: B3
Details: with glis2_human GLIS2, Q9BZE0
Remark: another data set of the same source

Q: With G386D as the variant, how does the “effect of a mutation on the interaction” value read?
A: The value was “with no effect”.

Variants of: B3
Details: with glis2_human GLIS2, Q9BZE0
Remark: another data set of the same source

Q: How did the “effect of a mutation on the interaction” value turn out when R361H was run?
A: The value was “with no effect”.

Variants of: B3
Details: with glis2_human GLIS2, Q9BZE0
Remark: another data set of the same source

Q: For R361C, which “effect of a mutation on the interaction” value is on record?
A: The value was “with no effect”.
